# Reference: article PMC8424217 (The Journal of Biological Chemistry, 2021)
# * marks the point of attachment. Palmitoyl = CCCCCCCCCCCCCCCC(=O)*
# T1: rat thoracic aorta rings (Rattus norvegicus, UniProt P49684)
# T1 sequence (P49684 1-386): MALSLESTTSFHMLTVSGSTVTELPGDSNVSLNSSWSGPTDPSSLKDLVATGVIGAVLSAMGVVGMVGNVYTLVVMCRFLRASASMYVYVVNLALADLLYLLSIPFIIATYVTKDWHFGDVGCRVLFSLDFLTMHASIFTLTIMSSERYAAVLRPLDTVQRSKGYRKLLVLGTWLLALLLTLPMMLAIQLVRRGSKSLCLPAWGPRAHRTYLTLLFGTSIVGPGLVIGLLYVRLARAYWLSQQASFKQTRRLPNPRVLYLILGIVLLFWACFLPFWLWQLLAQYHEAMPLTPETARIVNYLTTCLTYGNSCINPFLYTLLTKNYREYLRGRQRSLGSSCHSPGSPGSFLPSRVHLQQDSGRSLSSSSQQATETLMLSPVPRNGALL
# T2: human urotensin II receptor, on HEK 293 cells stably expressing it (human) (UniProt Q9UKP6)
# T2 sequence: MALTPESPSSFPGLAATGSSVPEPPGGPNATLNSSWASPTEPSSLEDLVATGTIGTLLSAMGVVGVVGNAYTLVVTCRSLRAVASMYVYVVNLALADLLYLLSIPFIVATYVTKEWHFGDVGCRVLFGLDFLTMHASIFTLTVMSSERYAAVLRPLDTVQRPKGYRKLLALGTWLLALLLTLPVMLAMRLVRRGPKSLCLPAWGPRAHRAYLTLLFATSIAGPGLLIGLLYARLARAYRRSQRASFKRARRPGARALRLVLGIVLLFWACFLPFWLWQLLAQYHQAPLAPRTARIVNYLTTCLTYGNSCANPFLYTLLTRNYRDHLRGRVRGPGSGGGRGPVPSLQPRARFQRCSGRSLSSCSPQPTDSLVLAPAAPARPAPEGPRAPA
# T3: human urotensin II receptor, on CHO-K1 cells stably expressing it (human) (UniProt Q9UKP6)
# T3 sequence: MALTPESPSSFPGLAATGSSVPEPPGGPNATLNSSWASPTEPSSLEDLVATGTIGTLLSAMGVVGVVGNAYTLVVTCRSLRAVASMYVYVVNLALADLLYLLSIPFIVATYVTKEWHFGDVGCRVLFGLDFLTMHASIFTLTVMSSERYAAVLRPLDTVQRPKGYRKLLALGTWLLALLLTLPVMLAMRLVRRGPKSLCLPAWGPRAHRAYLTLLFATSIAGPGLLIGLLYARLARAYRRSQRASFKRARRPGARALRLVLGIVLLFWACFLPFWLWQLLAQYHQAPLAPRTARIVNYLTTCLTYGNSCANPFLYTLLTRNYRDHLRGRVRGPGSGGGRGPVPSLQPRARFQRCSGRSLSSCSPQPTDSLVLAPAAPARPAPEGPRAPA
# Assays:
# rat thoracic aorta rings [1] = target: T1, rat thoracic aorta rings; test: Rat aortic ring contraction (agonist); settings: mean ± SEM
# Procedure: (§1) Each replicate (n) was conducted on tissue obtained from at least three different animals. Data represent mean ± SEM.
# (§2) Adult male Sprague-Dawley rats (Charles-River) weighing 250–300 g were housed in cages under controlled illumination (12:12 h light–dark cycle), humidity, and temperature (21–23 °C) and had free access to tap water and rat chow. All experimental procedures were performed in accordance with regulations and ethical guidelines from the Canadian Council for the Care of Laboratory Animals and received approvals of the institutional animal care and use committee of the Institut National de la Recherche Scientifique—Centre Armand-Frappier Santé Biotechnologie. As previously described ([17], [18]), the thoracic aorta was cleared of surrounding tissue and then excised from the aortic arch to the diaphragm. Conjunctive tissues were next removed from the thoracic aorta and the vessels were divided into five rings of 4 mm. The endothelium of each aortic ring was removed by gently rubbing the vessel intimal surface. Aortic rings were then placed in a 5 ml organ bath filled with oxygenated normal Krebs–Henseleit buffer. Eighty microliters of a 2.5 M potassium chloride solution (40 mM final concentration) was used to evaluate maximal contractile responses of each vessel. […] Cumulative concentration–response curves to synthetic peptides were obtained by increasing the concentration of each peptide in the remaining organ chambers (10^−11–10^−5 M).
# rat thoracic aorta rings [2] = target: T1, rat thoracic aorta rings; test: Modulation of URP-mediated rat aortic ring contraction; settings: URP alone, percentage of KCl (40 mM) contraction divided by tissue response to URP (10^−6 M), mean ± SEM, n = 22, read-out: URP-mediated contraction Emax, control (no pretreatment)
# Procedure: as §1, §2
# [3] = target: T2, human urotensin II receptor, on HEK 293 cells stably expressing it (human)
# [4] = target: T3, human urotensin II receptor, on CHO-K1 cells stably expressing it (human)
# [5] = target: T3, human urotensin II receptor, on CHO-K1 cells stably expressing it (human); remark: listed apart in the source
# [6] = scale: % of the activation induced by hUII
Molecule,"contraction pEC50 (rat thoracic aorta rings [1]; n = 22 (hUII, URP), n = 5 (pepducins))","Emax (rat thoracic aorta rings [1]; percentage of contraction induced by 40 mM KCl, n = 22)",Emax (rat thoracic aorta rings [2]),"G13 activation (BRET biosensor), HEK 293-hUT cells; pEC50 [3]","Gi activation (BRET biosensor), HEK 293-hUT cells; pEC50 [3]","Gq activation (BRET biosensor), HEK 293-hUT cells; pEC50 [3]","β-arrestin 1 conformational change (BRET biosensor), HEK 293-hUT cells; pEC50 [3]","β-arrestin 2 conformational change (BRET biosensor), HEK 293-hUT cells; pEC50 [3]","G12 activation (BRET biosensor), HEK 293-hUT cells; maximum efficacy at 10^-6 M [3, 6]","G13 activation (BRET biosensor), HEK 293-hUT cells; Emax [3, 6]","Gi activation (BRET biosensor), HEK 293-hUT cells; Emax [3, 6]","Gq activation (BRET biosensor), HEK 293-hUT cells; Emax [3, 6]","β-arrestin 1 conformational change (BRET biosensor), HEK 293-hUT cells; Emax [3, 6]","β-arrestin 2 conformational change (BRET biosensor), HEK 293-hUT cells; Emax [3, 6]","IP1 production (IP-One terbium immunoassay), CHO-hUT cells, 40 min; efficacy at 10^-5 M (% of the hUII maximum effect) [4]","IP1 production (IP-One terbium immunoassay), CHO-hUT cells, 40 min; pEC50 [4]","ERK1/2 phosphorylation (western blot), CHO-hUT cells, 5 min; Emax (% of the hUII maximum effect) [5]","ERK1/2 phosphorylation (western blot), CHO-hUT cells, 5 min; pEC50 [5]","β-arrestin 2 conformational change (BRET biosensor), HEK 293-hUT cells; maximum efficacy at 10^-6 M [3, 6]"
"CC(C)[C@H](NC(=O)[C@@H]1CSSC[C@H](NC(=O)[C@H](C)N)C(=O)N[C@@H](Cc2ccccc2)C(=O)N[C@@H](Cc2c[nH]c3ccccc23)C(=O)N[C@@H](CCCCN)C(=O)N[C@@H](Cc2ccc(O)cc2)C(=O)N1)C(=O)O [URP, urotensin II-related peptide, reference compound]",8.10 ± 0.06,108 ± 3%,105 ± 3%,,,,,,,,,,,,,,,,
"Palmitoyl-WLSQRASFKRARR-NH2 (SMILES CCCCCCCCCCCCCCCC(=O)N[C@@H](Cc1c[nH]c2ccccc12)C(=O)N[C@@H](CC(C)C)C(=O)N[C@@H](CO)C(=O)N[C@@H](CCC(N)=O)C(=O)N[C@@H](CCCNC(=N)N)C(=O)N[C@@H](C)C(=O)N[C@@H](CO)C(=O)N[C@@H](Cc1ccccc1)C(=O)N[C@@H](CCCCN)C(=O)N[C@@H](CCCNC(=N)N)C(=O)N[C@@H](C)C(=O)N[C@@H](CCCNC(=N)N)C(=O)N[C@@H](CCCNC(=N)N)C(N)=O) [[Trp^1, Leu^2]hUT-Pep3]",,,,6.51 -log EC50,10.4 -log EC50,8.34 -log EC50,8.08 -log EC50,7.74 -log EC50,5,185,97,29,18,19,60,< 6 -log EC50,56,6.7 -log EC50,
Palmitoyl-RPLDTVQRPKGY-NH2 (SMILES CCCCCCCCCCCCCCCC(=O)N[C@@H](CCCNC(=N)N)C(=O)N1CCC[C@H]1C(=O)N[C@@H](CC(C)C)C(=O)N[C@@H](CC(=O)O)C(=O)N[C@H](C(=O)N[C@H](C(=O)N[C@@H](CCC(N)=O)C(=O)N[C@@H](CCCNC(=N)N)C(=O)N1CCC[C@H]1C(=O)N[C@@H](CCCCN)C(=O)NCC(=O)N[C@@H](Cc1ccc(O)cc1)C(N)=O)C(C)C)[C@@H](C)O) [hUT-Pep2],,,,6.33 -log EC50,10.1 -log EC50,7.31 -log EC50,,,,154,96,9,,,35,< 6 -log EC50,34,7.26 -log EC50,15
